Patent publication US7108990B2, “Chemokine receptor” (ChemoCentryx, Inc., priority 1999, dated 2006)
Entries after “also recorded” stand apart in the source; their conditions may differ. Read-outs that look alike come from different tables or passages of the source.

Columns and labels:
CCX CKR [1] = biological target: T1, CCX CKR (Homo sapiens, UniProt Q9NPB9); test: Adhesion of HEK293-CCX CKR cells to immobilized stalkokines and competition by soluble chemokines; assay type: cell-based; settings: soluble recombinant chemokine 5–10 ug/ml
T1 construct: Full length CCX CKR expression constructs were made in pIRESpuro expression vector; expressed in transfected cells
T1 sequence (Q9NPB9 1-350): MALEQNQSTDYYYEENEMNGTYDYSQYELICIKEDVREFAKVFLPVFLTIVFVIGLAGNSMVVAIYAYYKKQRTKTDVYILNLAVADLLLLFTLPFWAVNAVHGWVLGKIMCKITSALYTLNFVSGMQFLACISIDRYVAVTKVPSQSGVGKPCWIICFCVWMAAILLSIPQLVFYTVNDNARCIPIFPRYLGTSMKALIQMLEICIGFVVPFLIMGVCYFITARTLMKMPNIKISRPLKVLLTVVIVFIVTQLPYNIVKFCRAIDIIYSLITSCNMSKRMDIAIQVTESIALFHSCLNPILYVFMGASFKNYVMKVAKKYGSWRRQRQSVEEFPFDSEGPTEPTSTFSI
From the text: “Stalkokine” technology was used to identify the chemokines bound by the CCX CKR. Briefly, immobilized native chemokines alone are incapable of capturing cells bearing cognate receptors (Imai et al., 1997, Cell 91:521). We have developed non-native chemokine structures, stalkokines, comprising chemokine moieties engineered as N-terminal attachments to extended modified mucins (Bazan et al., 1997, Nature 385:640). In one embodiment, stalkokines, harvested in the supernatants of HEK293 cells after transient transfection, are anchored to solid substrates via antibodies against carrier domains (e.g. poly-His epitopes) engineered to the carboxyl terminus, leaving the chemokine domain free to interact with candidate orphan receptors.
To determine ligand binding to CCX CKR, HEK293-CCX CKR cells were used to interrogate chemokine ‘stalkokines’ (SK), i.e., molecules in which discrete chemokine domains were engineered to be tethered to the end of an extended stalk structure. Stalkokines were interrogated using 8-well chamber slides coated first with anti-His anchoring antibody (10 ug/ml in PBS overnight at RT), which were washed and ‘blocked’ (2% FBS/0.5% BSA in PBS); treated with 250 ul of HEK293 cell stalkokine supernatants (1 hr at 37 C), and incubated with 500,000 HEK293-CCX CKR transfectants (1.5 hrs at RT). Inhibition of adhesion by competition with soluble chemokines was done by incubating cells with 5–10 ug/ml of recombinant chemokines. In all cases, nonadherent cells were removed by washing in PBS; remaining adherent cells were fixed with 1% glutaraldehyde, photoimaged and counted. As a primary screen this adhesion would reveal putative receptor-ligand interactions.

CCX CKR [2] = biological target: T1, CCX CKR; test: Small molecule screen: inhibition of 125I-ELC binding to HEK293 cells stably expressing CCX CKR; settings: for effect on binding between ELC and CCX CKR: 125I-ELC ~25–100 pM, compounds 1–5 μg/mL, HEK293-CCX CKR cells, 3 hours at 4° C.; for type of modulator of CCX CKR function: Table 1, exemplary small molecule modulators of CCX CKR binding to ELC
Description: Source plates of chemical libraries were obtained from commercial vendors and contained individual compounds at 5 mg/mL in DMSO, or in some instances, at 1 mg/mL. From these, multiple compound plates containing 10 compounds in each well were made, and these were diluted in 20% DMSO to a concentration of 50 μg/mL (10 μg/mL for those beginning at 1 mg/mL). An aliquot of 20 μL of each mixture was put into the test plates, which were stored frozen until use.
HEK293 cells stably expressing the M1 flag epitope-tagged CCX CKR (described in Example 3, supra) were cultured in DMEM-10% FBS, and harvested when the concentration was between 0.5–1.0×10^6 cells/mL. The cells were centrifuged and resuspended in assay buffer (20 mM HEPES, 80 mM NaCl, 1 mM CaCl2, 5 mM MgCl2, and with 0.2% bovine serum albumin, pH 7.4) to a concentration of 5.6×10^6 cells/mL.
Using a Multi-Probe automated system, 0.09 mL of cells was added to each well of the assay test plates containing the compounds, followed by 0.09 mL of ^125I-MIPβ3/ELC (from Amersham Pharmacia Biotech) diluted in assay buffer (final concentration ˜25–100 pM, with ˜50,000 cpm per well). The final concentration of the compounds was 1–5 μg/mL each. The plates were sealed and incubated for approximately 3 hours at 4° C. on a shaker platform. The assay plates were harvested using Packard GP/B filter plates, pre-soaked in PEI solution, on the vacuum harvest apparatus. Scintillation fluid (50 μL) was added to each of the wells, the plates were sealed and counted in a Top Count scintillation counter. Control wells contained either diluent only (for total counts) or excess ELC (1 μg/mL, for non-specific binding) and were used to calculate the percent of total inhibition of ELC binding for each set of compounds.

CCX CKR [3] = biological target: T1, CCX CKR; test: Ligand induced internalization of Flag-CCX CKR in 293 cells (FACS); assay type: cell-based; settings: 100 nM chemokine, 37° C., 15 or 45 minutes, 293 F-CCR10 cells
Description: 293 cells transfected with the Flag-CCX CKR fusion plasmid (i.e., “293 F-CCR10 cells;” see Example 3) were incubated at 37° C. with varying concentrations of chemokines (ELC, SLC, TECK, murine CTACK and MCP-4) for 15 or 45 minutes. Following incubation, the cells were washed and fixed with 3% paraformaldehyde for 15 minutes on ice. The cells were stained with anti-Flag M1 antibody, followed by a PE-conjugated anti-mouse secondary antibody. FACS analysis were then carried out to determine surface expression of the receptor.
Results: A reduction in antibody binding in the presence of ligand is an indication of ligand-induced internalization of the receptor.

CCX CKR [4] = biological target: T1, CCX CKR; test: Ligand binding fingerprint: cold chemokines competing against 125I-ELC on CCX CKR stable transfectants; settings: cold competitor at 200 nM; human and murine chemokines
From the text: In order to rapidly and thoroughly define a given chemokine receptor's ligand binding fingerprint, we have established an approach to comprehensively profile chemokine receptors using a large array of purified chemokines and chemokine variants. We used this approach to confirm independently the interaction of ELC and other chemokines with CCX CKR. Employing radioligand binding of ^125-labeled-ELC or ^125-TECK to CCX CKR stable transfectants, chemokine specificity for the new receptor was determined.
(§1) Binding analysis was carried out using efficiency-maximized radioligand binding utilizing filtration protocols designated “Displace Max” (Dairaghi et al., 1999, J. Biol. Chem. 274:21569). In these assays, DisplaceMax employed the simultaneous interrogation of CCX CKR transfectants by >80 distinct purified chemokines in the ability to displace radiolabeled ELC or TECK, using the protocol described (Dairaghi et al., 1999, J. Biol. Chem. 274:21569).

CCX CKR [5] = biological target: T1, CCX CKR; test: Radioligand binding competition (DisplaceMax) to CCX CKR stable transfectants with Scatchard transformation
From the text: In one embodiment, binding is detected as described by Dairaghi et al., 1997, J. Biol. Chem. 272:28206–209 (incorporated by reference in its entirety for all purposes) substituting CCX CKR transfectants for the CCR3 transfectants). In one embodiment, binding is detected using the filter based technique described by Dairaghi et al., 1999, J. Biol. Chem. 274:2156 (incorporated by reference in its entirety for all purposes), e.g., as shown in FIG. 4. Briefly, this technology employs expanded, efficiency-maximized radioligand binding utilizing filtration protocols. In these assays, 1×10^5 CCXCKR-293 HEK cells are incubated with ^125I-labeled ELC (MIP3beta) (final concentration of ˜0.05 nM) in the presence of unlabeled chemokine for 3 h at 4° C. in 25 mM HEPES, 140 mM NaCl, 1 mM CaCl2, 5 mM MgCl2, and 0.2% bovine serum albumin, adjusted to pH 7.1. Reactions were aspirated onto PEI-treated GF/B glass filters using a cell harvester (Packard). Filters are washed twice (25 mM HEPES, 500 mM NaCl, 1 mM CaCl2 5 mM MgCl2, adjusted to pH 7.1) and scintillant (e.g., MicroScint 20; 50 μl) is added to dried filters and counted (e.g., using a Packard Topcount scintillation counter). The competition dose-response curves is analyzed by standard methods to determine IC50 values (e.g., using GraphPad Prism software (San Diego, Calif.)). Additionally, a Scatchard transformation can be used to estimate the receptor sites per cell (e.g., using WaveMetrics Igor software (Lake Oswego, Oreg.)).
as §1
The binding interactions identified in the primary screen were examined quantitatively by extensive radioligand binding competition to CCX CKR stable transfectants and Scatchard transformation of the displacement data (FIG. 4B). […] In each case, the murine versions of these chemokines also bound, and with even greater affinity; the apparent Kd's are listed in FIG. 4B. […] In similar experiments, murine CTACK bound the receptor with a Kd of ˜9 nM (not shown). CTACK is also referred to as CCL27, ALP, ILC, and ESkine.

CCX CKR [6] = biological target: T1, CCX CKR; test: Homologous competition binding assay with radiolabeled chemokine on HEK293-CCX CKR cells; settings: HEK293-CCX CKR cells versus wildtype HEK293 cells
From the text: Furthermore ELC-SK mediated adhesion was abolished in the presence of soluble native ELC as a competitor (FIG. 3A, top row). […] Moreover, radiolabeled ELC was used in a traditional homologous competition assay in the presence of increasing concentrations of unlabeled ELC. […] Taken together, the stalkokine-based adhesion and radiolabeled ligand binding/homologous competition assays indicate that CCX CKR is a new chemokine receptor that bound a novel compliment of chemokines.

“MCP-3: chemokine, representative of many non-competing chemokines” was tested, and the “effect of soluble chemokine on ELC-SK mediated adhesion of HEK293-CCX CKR cells” value (CCX CKR [1]) was “no diminution in adhesion”.

CC1CCCCN1CCCN(Cc1ccc(OCc2ccccc2)cc1)C(=O)NCC1CCC2CCCC(C2)C1 (stereo not shown) [Compound II] was tested, and the “effect on binding between ELC and CCX CKR” value (CCX CKR [2]) was “inhibit binding” and the “type of modulator of CCX CKR function” value (CCX CKR [2]) was “Compound II(antagonist)”.

For “MCP-4: chemokine, did not cause receptor internalization”, the “internalization of CCX CKR” value (CCX CKR [3]) was “did not cause internalization”.

In the case of CC1CCCCN1CCCN(Cc1ccc(OCc2ccccc2)cc1)C(=O)Nc1ccc(Cl)c(Cl)c1 (stereo not shown) [Compound I], the “effect on binding between ELC and CCX CKR” value (CCX CKR [2]) is reported as “inhibit binding” and the “type of modulator of CCX CKR function” value (CCX CKR [2]) is reported as “Compound I(antagonist)”.

For CCC(c1nc2ccccc2c(=O)n1C)N(Cc1ccco1)C(=O)Nc1cccc(C(F)(F)F)c1 (stereo not shown) [Compound III], the “effect on binding between ELC and CCX CKR” value (CCX CKR [2]) was “enhance binding” and the “type of modulator of CCX CKR function” value (CCX CKR [2]) was “Compound III(agonist)”.

For BLC: the CXC chemokine BLC, the “competition with 125I-labeled ELC binding to CCX CKR (fingerprint)” value (“competition … (fingerprint)” below) (CCX CKR [4]) was “potential lower affinity” and the “affinity of binding to CCX CKR, in words” value (CCX CKR [5]) was “lower affinity; also recorded: of lesser affinity, also bound well”.

B1: mMIP-1gamma: murine chemokine MIP-1γ (protein)
chain: QITHATETKEVQSSLKAQQGLEIEMFHMGFQDSSDCCLSYNSRIQCSRFIGYFPTSGGCTRPGIIFISKRGFQVCANPSDRRVQRCIERLEQNSQPRTYKQ
For B1, the “competition … (fingerprint)” value (CCX CKR [4]) was “moderately” and the “affinity of binding to CCX CKR, in words” value (CCX CKR [5]) was “lower affinity”.

B2: TECK: thymus expressed chemokine, recombinant (protein)
chain: QGVFEDCCLAYHYPIGWAVLRRAWTYRIQEVSGSCNLPAAIFYLPKRHRKVCGNPKSREVQRAMKLLDARNKVFAKLHHNTQTFQAGPHAVKKLSSGNSKLSSSKFSNPISSSKRNVSLLISANSGL
For B2, the “effect of soluble chemokine on ELC-SK mediated adhesion of HEK293-CCX CKR cells” value (CCX CKR [1]) was “significant reduction; also recorded: ablation of adhesion”, the “binding in homologous competition of radiolabeled with unlabeled chemokine” value (CCX CKR [6]) was “Nearly identical results” and the “internalization of CCX CKR” value (CCX CKR [3]) was “Internalization of the receptor was observed”. The “competition … (fingerprint)” value (CCX CKR [4]) was “bound well” and the “affinity of binding to CCX CKR, in words” value (CCX CKR [5]) was “high affinity”.

B3: murine CTACK: murine chemokine CTACK, also referred to as CCL27, ALP, ILC, and ESkine (protein)
chain: LPLPSSTSCCTQLYRQPLPSRLLRRIVHMELQEADGDCHLQAVVLHLARRSVCVHPQNRSLARWLERQGKRLQGTVPSLNLVLQKKMYSHPQQQN
With B3 the “internalization of CCX CKR” value (CCX CKR [3]) was “Internalization of the receptor was observed” and the “affinity of binding to CCX CKR, in words” value (CCX CKR [5]) was “high affinity”.

B4: vMIP-II: virally-encoded chemokine from the human Kaposi's sarcoma herpesvirus HHV8 (protein)
chain: LGASWHRPDKCCLGYQKRPLPQVLLSSWYPTSQLCSKPGVIFLTKRGRQVCADKSKDWVKKLMQQLPVTAR
B4 was tested, and the “competition … (fingerprint)” value (CCX CKR [4]) was “potential lower affinity”, the “affinity of binding to CCX CKR, in words” value (CCX CKR [5]) was “moderate to low affinity” and the “affinity of binding to CCX CKR, in words” value (CCX CKR [5]; listed as vMIPII) was “lower affinity”.
